Experimental data as given in patent US20200199241A1 (Chugai, published 2020).
Changes are numbered by the printed parent chain. Names and notes keep the numbering of the source.

T1: FcγRIIa type R (human, UniProt P12318 36-217)
T1 construct: also called FcγRIIaR; FcgRIIaR
T1 chain: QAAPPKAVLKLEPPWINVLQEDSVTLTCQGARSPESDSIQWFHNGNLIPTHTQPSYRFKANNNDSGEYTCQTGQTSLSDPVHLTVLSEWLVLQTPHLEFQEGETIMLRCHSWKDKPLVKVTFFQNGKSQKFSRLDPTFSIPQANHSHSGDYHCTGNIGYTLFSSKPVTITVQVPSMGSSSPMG

T2: FcγRIIa type H (human, UniProt P12318 36-217)
T2 construct: also called FcγRIIaH; FcγRIIH
T2 sequence: T1 chain with R133H

T3: FcγRIIb (human, UniProt P31994 43-217, limits assumed)
T3 construct: also called FcgRIIb; FcγIIB
T3 sequence: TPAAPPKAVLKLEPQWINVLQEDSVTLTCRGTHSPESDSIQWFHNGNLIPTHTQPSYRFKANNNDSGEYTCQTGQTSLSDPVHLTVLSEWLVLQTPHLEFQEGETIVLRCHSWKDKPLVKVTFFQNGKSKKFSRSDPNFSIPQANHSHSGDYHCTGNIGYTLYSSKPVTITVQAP

T4: human FcγRIIa type R (human, UniProt P12318 36-217)
T4 construct: also called FcγRIIaR; FcγRIIa(R)
T4 chain: T1 chain

T5: human FcγRIIb (human, UniProt P31994 43-217, limits assumed)
T5 construct: also called FcγIIB
T5 sequence: T3 sequence

B1: IL6R-2B172/IL6R-L (antibody, human IgG1)
heavy: QVQLQESGPGLVKPSETLSLTCAVSGHSISHDHAWSWVRQPPGEGLEWIGFISYSGITNYNPSLQGRVTISRDNSKNTLYLQMNSLRAEDTAVYYCARSLARTTAMDYWGEGTLVTVSSASTKGPSVFPLAPSSKSTSGGTAALGCLVKDYFPEPVTVSWNSGALTSGVHTFPAVLQSSGLYSLSSVVTVPSSSLGTQTYICNVNHKPSNTKVDKKVEPKSCDKTHTCPPCPAPELLGGDSVFLFPPKPKDTLMISRTPEVTCVVVDVSHEDPEVKFNWYVDGVEVHNAKTKPREEQYNSTYRVVSVLTVLHQDWLNGKEYKCKMSNKALPAPIEKTISKAKGQPREPQVYTLPPSRDELTKNQVSLTCLVKGFYPSDIAVEWESNGQPENNYKTTPPVLDSDGSFFLYSKLTVDKSRWQQGNVFSCSVMHEALHNHYTQESLSLSP
light: DIQMTQSPSSLSASVGDRVTITCRASQDISSYLNWYQQKPGKAPKLLIYYTSRLHSGVPSRFSGSGSGTDFTFTISSLQPEDIATYYCQQGNTLPYTFGQGTKVEIK
notes: IgG1; Fc variant of IL6R-B3; copies: 2 + 2
B2: IL6R-BP100/IL6R-L (antibody, human IgG1)
heavy: B1 heavy with S269A, M325V
light: B1 light
notes: as for B1
B3: IL6R-2B171/IL6R-L (antibody, human IgG1)
heavy: B1 heavy with M325L
light: B1 light
notes: as for B1
B4: IL6R-BP102/IL6R-L (antibody, human IgG1)
heavy: B1 heavy with S269Q, M325V
light: B1 light
notes: as for B1
B5: IL6R-PD043/IL6R-L (antibody, human IgG1)
heavy: B1 heavy with L236Y, M254Y, M325V, N436Y, E441K
light: B1 light
notes: Alteration introduced into IL6R-F11; also called P238D/L234Y; L234Y/P238D
B6: IL6R-PD082/IL6R-L (antibody, human IgG1)
heavy: B1 heavy with G239F, M254Y, M325V, N436Y, E441K
light: B1 light
notes: Alteration introduced into IL6R-F11; also called P238D/G237F; G237F/P238D
B7: IL6R-PD087/IL6R-L (antibody, human IgG1)
heavy: B1 heavy with G239M, M254Y, M325V, N436Y, E441K
light: B1 light
notes: Alteration introduced into IL6R-F11; also called P238D/G237M; G237M/P238D
B8: IL6R-PD094/IL6R-L (antibody, human IgG1)
heavy: B1 heavy with G239W, M254Y, M325V, N436Y, E441K
light: B1 light
notes: Alteration introduced into IL6R-F11; also called P238D/G237W; G237W/P238D
B9: IL6R-PD097/IL6R-L (antibody, human IgG1)
heavy: B1 heavy with S241D, M254Y, M325V, N436Y, E441K
light: B1 light
notes: Alteration introduced into IL6R-F11; also called P238D/S239D
B10: IL6R-PD042/IL6R-L (antibody, human IgG1)
heavy: B1 heavy with L236W, M254Y, M325V, N436Y, E441K
light: B1 light
notes: Alteration introduced into IL6R-F11; also called P238D/L234W; L234W/P238D
B11: IL6R-PD079/IL6R-L (antibody, human IgG1)
heavy: B1 heavy with G239A, M254Y, M325V, N436Y, E441K
light: B1 light
notes: Alteration introduced into IL6R-F11; also called P238D/G237A; G237A/P238D
B12: IL6R-PD095/IL6R-L (antibody, human IgG1)
heavy: B1 heavy with G239Y, M254Y, M325V, N436Y, E441K
light: B1 light
notes: Alteration introduced into IL6R-F11; also called P238D/G237Y; G237Y/P238D
B13: IL6R-PD081/IL6R-L (antibody, human IgG1)
heavy: B1 heavy with G239E, M254Y, M325V, N436Y, E441K
light: B1 light
notes: Alteration introduced into IL6R-F11; also called P238D/G237E; G237E/P238D
B14: IL6R-PD086/IL6R-L (antibody, human IgG1)
heavy: B1 heavy with G239L, M254Y, M325V, N436Y, E441K
light: B1 light
notes: Alteration introduced into IL6R-F11; also called P238D/G237L; G237L/P238D
B15: IL6R-F652/IL6R-L (antibody, human IgG1)
heavy: B1 heavy with M254Y, M325V, N436Y, E441K
light: B1 light
notes: IL6R-F11 with P238D (EU numbering)

The binders below were run against T6, FcγRIa (human, UniProt P12314 16-292, limits assumed) (assay: SPR (Biacore), FcγR over captured antibody).
T6 construct: also called FcgRIa; CD64
T6 sequence (P12314 16-292 limits assumed): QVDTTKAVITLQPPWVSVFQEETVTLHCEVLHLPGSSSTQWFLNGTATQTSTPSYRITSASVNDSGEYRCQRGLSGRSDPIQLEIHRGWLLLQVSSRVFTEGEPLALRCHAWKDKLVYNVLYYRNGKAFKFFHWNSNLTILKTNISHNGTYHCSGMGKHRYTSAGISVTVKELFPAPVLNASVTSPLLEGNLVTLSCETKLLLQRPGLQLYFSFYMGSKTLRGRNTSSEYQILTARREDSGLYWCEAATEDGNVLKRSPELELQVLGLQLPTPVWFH

Kd	Binder
3 nM	B1
1.1 nM	B2
9.1 nM	B3
8.2 nM	B4

Molecular target: T1, FcγRIIa type R
Assay: SPR (Biacore), FcγR over captured antibody

Kd	Binder
6100 nM	B1
7800 nM	B2
16000 nM	B3
8400 nM	B4

These binders were tested against T2, FcγRIIa type H (assay: SPR (Biacore), FcγR over captured antibody).

Kd	Binder
21000 nM	B1
46000 nM	B2
34000 nM	B3
61000 nM	B4

The binders below were run against T3, FcγRIIb (assay: SPR (Biacore), FcγR over captured antibody).

Kd	Binder
770 nM	B1
1100 nM	B2
1100 nM	B3
900 nM	B4

These binders were tested against T7, FcγRIIIa type V (human, UniProt P08637 17-208, limits assumed) (assay: SPR (Biacore), FcγR over captured antibody).
T7 construct: also called FcγRIIIaV; FcgRIIIaV
T7 sequence (P08637 other isoform, or with tags, fused parts or gaps limits assumed): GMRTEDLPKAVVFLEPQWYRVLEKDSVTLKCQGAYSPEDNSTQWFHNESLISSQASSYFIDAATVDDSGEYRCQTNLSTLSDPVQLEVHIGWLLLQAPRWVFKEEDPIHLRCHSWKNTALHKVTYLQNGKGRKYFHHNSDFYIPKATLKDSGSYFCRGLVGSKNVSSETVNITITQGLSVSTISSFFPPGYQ

Kd	Binder
48000 nM	B1
59000 nM	B2
57000 nM	B3
82000 nM	B4

What follows are binders tested against T8, human FcγRIa (human, UniProt P12314 16-292, limits assumed) (assay: SPR (Biacore), antibody captured, FcγR as analyte).
T8 construct: also called CD64
T8 sequence (P12314 16-292 limits assumed): as the sequence (P12314 16-292 limits assumed) above

Kd	Binder
75 nM	B5
52 nM	B6
52 nM	B7
36 nM	B8
4.9 nM	B9
63 nM	B10
140 nM	B11
93 nM	B12
340 nM	B13
120 nM	B14

Molecular target: T4, human FcγRIIa type R
Assay: SPR (Biacore), antibody captured, FcγR as analyte

Kd	Binder
26000 nM	B5
14000 nM	B6
22000 nM	B7
7200 nM	B8
3500 nM	B9
16000 nM	B10
32000 nM	B11
7900 nM	B12
38000 nM	B13
18000 nM	B14

These binders were tested against T5, human FcγRIIb (assay: SPR (Biacore), antibody captured, FcγR as analyte).

Kd	Binder
1600 nM	B5
3400 nM	B6
2900 nM	B7
2300 nM	B8
1400 nM	B9
2000 nM	B10
3000 nM	B11
2300 nM	B12
3600 nM	B13
2600 nM	B14

These binders were tested against T5, human FcγRIIb (assay: SPR (Biacore); ratio against parent IL6R-F11/IL6R-L).

KD(IIb) of parent polypeptide/KD(IIb) of altered polypeptide	Binder
4.2	B5
2	B6
2.4	B7
2.9	B8
5	B9
3.4	B10
2.3	B11
2.9	B12
1.9	B13
2.7	B14

Molecular target: T4, human FcγRIIa type R
Assay: SPR (Biacore), binding amount relative to IL6R-F652/IL6R-L = 100

relative binding activity	Binder
100	B15
175	B5
380	B6
196	B7
593	B8
844	B9
240	B10
138	B11
543	B12
117	B13
268	B14

Each binder was assayed against T5, human FcγRIIb in the same assay as above.

relative binding activity	Binder
100	B15
112	B5
108	B6
109	B7
122	B8
139	B9
106	B10
101	B11
124	B12
101	B13
112	B14

The binders below were run against T3, FcγRIIb (assay: SPR (Biacore), KD of IL6R-B3/IL6R-L divided by KD of the variant).
Description: Furthermore, KD(IIaR)/KD(IIb) and KD(IIaH)/KD(IIb) in the table respectively represent the value obtained by dividing the KD value of each variant for FcγRIIaR by the KD value of each variant for FcγRIIb, and the value obtained by dividing the KD value of each variant for FcγRIIaH by the KD value of each variant for FcγRIIb. KD(IIb) of the parent polypeptide/KD(IIb) of the altered polypeptide refers to the value obtained by dividing the KD value of the parent polypeptide for FcγRIIb by the KD value of each variant for FcγRIIb.

KD(IIb) of the parent polypeptide/KD(IIb) of altered polypeptide	Binder
4 fold	B1
2.9 fold	B2
2.9 fold	B3
3.4 fold	B4

Each binder was assayed against T5, human FcγRIIb (assay: SPR (Biacore); KD for FcγRIIaH divided by KD for FcγRIIb of the same antibody).

KD(IIaH)/KD(IIb)	Binder
14.4	B5
4.7	B6
7	B7
5.2	B8
14	B9
9.5	B10
7	B11
6.4	B12
7	B13
7.1	B14

The binders below were run against T5, human FcγRIIb (assay: SPR (Biacore); KD for FcγRIIaR divided by KD for FcγRIIb of the same antibody).

KD(IIaR)/KD(IIb)	Binder
15.9	B5
4.1	B6
7.7	B7
3.1	B8
2.6	B9
8.1	B10
10.5	B11
3.4	B12
10.6	B13
6.9	B14

Each binder was assayed against T3, FcγRIIb (assay: SPR (Biacore); KD for FcγRIIaH divided by KD for FcγRIIb of the same antibody).
Description: Furthermore, KD(IIaR)/KD(IIb) and KD(IIaH)/KD(IIb) in the table respectively represent the value obtained by dividing the KD value of each variant for FcγRIIaR by the KD value of each variant for FcγRIIb, and the value obtained by dividing the KD value of each variant for FcγRIIaH by the KD value of each variant for FcγRIIb.

KD(IIaH)/KD(IIb)	Binder
27.3	B1
42.6	B2
31.8	B3
67.6	B4

What follows are binders tested against T3, FcγRIIb (assay: SPR (Biacore); KD for FcγRIIaR divided by KD for FcγRIIb of the same antibody).

KD(IIaR)/KD(IIb)	Binder
8	B1
7.3	B2
15	B3
9.4	B4
